This series deals with the molecule itself. Kind of series: crystal structure; ATP-bound His8-LptB^E163Q, 1.96 Å; hanging drops, reservoir 28% PEG 4000, 100 mM MES pH 6.75, 600 mM NaCl; space group C222(1).

B1: His8-LptB^E163Q (enzyme, E. coli, UniProt P0A9V1 1-241, looked up)
chain: MATLTAKNLAKAYKGRRVVEDVSLTVNSGEIVGLLGPNGAGKTTTFYMVVGIVPRDAGNIIIDDDDISLLPLHARARRGIGYLPQEASIFRRLSVYDNLMAVLQIRDDLSAEQREDRANELMEEFHIEHLRDSMGQSLSGGERRRVEIARALAANPKFILLDQPFAGVDPISVIDIKRIIEHLRDSGLGVLITDHNVRETLAVCERAYIVSQGHLIAHGTPTEILQDEHVKRVYLGEDFRL
notes: catalytically dead E163Q variant; the CTD is fully resolved up to L241, the last residue of LptB; A TEV protease cleavage site stands between the His8 tag and LptB; no TEV cleavage is described; also called His8TEV-LptB(E163Q); His-LptB(E163Q); source: E. coli KRX, pET28b(+)-His8TEV-LptB(E163Q), purified (Ni-NTA, gel filtration on Superdex 200); not shown: His8, N-terminal, kept
The term stoichiometry N denotes a count of units in the complex or per binding partner. As for B1, the “stoichiometry N” value worked out at 2.

The values above are taken from publication PMC6703430, “Combining Mutations That Inhibit Two Distinct Steps of the ATP Hydrolysis Cycle Restores Wild-Type Function in the Lipopolysaccharide Transporter and Shows that ATP Binding Triggers Transport” (mBio, 2019).
